Data on one molecule can be found in US20260008830A1.

This assay concerns the target T1, IL-22 receptors R1 and R2 on HEK-Blue IL-22 reporter cells (UniProt Q8N6P7).
T1 sequence (looked up) 1: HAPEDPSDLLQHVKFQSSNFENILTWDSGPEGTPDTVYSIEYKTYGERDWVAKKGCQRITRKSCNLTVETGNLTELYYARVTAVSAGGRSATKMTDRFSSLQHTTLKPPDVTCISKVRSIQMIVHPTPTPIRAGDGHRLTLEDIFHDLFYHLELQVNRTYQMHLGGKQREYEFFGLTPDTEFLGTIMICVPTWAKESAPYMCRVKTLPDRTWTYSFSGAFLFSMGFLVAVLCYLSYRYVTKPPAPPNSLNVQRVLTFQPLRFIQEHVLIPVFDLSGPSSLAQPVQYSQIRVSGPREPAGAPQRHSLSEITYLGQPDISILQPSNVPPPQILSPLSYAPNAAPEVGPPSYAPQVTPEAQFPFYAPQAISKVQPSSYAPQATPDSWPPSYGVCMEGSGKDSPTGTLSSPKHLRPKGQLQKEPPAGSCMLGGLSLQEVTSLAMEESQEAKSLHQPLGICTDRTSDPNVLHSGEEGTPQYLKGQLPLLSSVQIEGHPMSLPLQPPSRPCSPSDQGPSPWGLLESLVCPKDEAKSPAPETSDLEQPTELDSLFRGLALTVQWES
T1 sequence (looked up) 2: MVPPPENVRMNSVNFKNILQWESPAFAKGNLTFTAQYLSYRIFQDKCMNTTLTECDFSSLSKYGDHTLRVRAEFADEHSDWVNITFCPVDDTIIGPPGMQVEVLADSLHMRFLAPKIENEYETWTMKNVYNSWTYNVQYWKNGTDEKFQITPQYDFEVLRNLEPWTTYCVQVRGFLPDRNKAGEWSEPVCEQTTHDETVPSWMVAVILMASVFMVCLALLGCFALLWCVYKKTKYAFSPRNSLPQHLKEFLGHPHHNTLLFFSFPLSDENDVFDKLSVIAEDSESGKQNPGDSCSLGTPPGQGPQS
Kind of assay: cell-based or functional assay.

B1: IL22 WT (monomeric IL22 based on the IL22 crystal, PDB 3dlq, expressed in bacteria) (ligand)
chain: ARLDKSNFQQPYITNRTFMLAKEASLADNNTDVRLIGEKLFHGVSMSERCYLMKQVLNFTLEEVLFPQSDRFQPYMQEVVPFLARLSNRLSTCHIEGDDLHIQRNVQKLKDTVKKLGESGEIKAIGELDLLFMSLRNACI
For the molecule B1, the Kd (apparent, HEK-Blue IL-22 reporter) is 0.017 nM.
